{"source": "paper PMC10798635", "details_in_all_cases": "room temperature 30-45 min, BLI: 20 mM Tris-HCl pH 7.4, 80 mM NaCl, 20 mM KCl, 1 mM DTT", "key": {"[1]": {"tested_on": "Hantavirus nucleocapsid protein (NP), wild type (Sin Nombre virus)", "assay": "filter binding"}, "[2]": {"tested_on": "Hantavirus nucleocapsid protein (NP), wild type (Sin Nombre virus)", "assay": "filter binding", "remark": "listed apart in the source"}, "[3]": {"tested_on": "Hantavirus nucleocapsid protein (NP), wild type (Sin Nombre virus)", "assay": "BLI"}, "[4]": {"tested_on": "Hantavirus nucleocapsid protein (NP), wild type (Sin Nombre virus)", "assay": "filter binding", "remark": "listed apart in the source"}, "[5]": {"tested_on": "Hantavirus nucleocapsid protein (NP), wild type (Sin Nombre virus)", "assay": "filter binding", "remark": "listed apart in the source"}}}
{"substance": "Mutant 2 (VCP 5' UTR nt 542-988)", "values": [{"measurement": "Kd", "setting": "[1]", "value": 1900, "unit": "nM"}, {"measurement": "Kd", "setting": "[2]", "value": 1600, "unit": "nM"}]}
{"substance": "VCP mRNA 5' UTR wild type", "values": [{"measurement": "Kd", "setting": "[1]", "value": 47, "unit": "nM"}, {"measurement": "Kd", "setting": "[3]", "value": 25, "unit": "nM"}]}
{"substance": "Mutant 3 (mutant 1 lacking nt 530-542)", "values": [{"measurement": "Kd", "setting": "[4]", "value": 2400, "unit": "nM"}, {"measurement": "Kd", "setting": "[1]", "value": 2400, "unit": "nM"}]}
{"substance": "Mutant 4 (wild type UTR lacking nt 530-542)", "values": [{"measurement": "Kd", "setting": "[1]", "value": 3900, "unit": "nM"}, {"measurement": "Kd", "setting": "[5]", "value": 1400, "unit": "nM"}]}
{"substance": "Mutant 1 (VCP 5' UTR nt 1-542)", "values": [{"measurement": "Kd", "setting": "[1]", "value": 42.2, "unit": "nM"}]}
